For the assay, the target named is GP1 receptor-binding domain of Lujo virus (LUJVGP1), residues 74-199 (Lujo virus (LUJV), UniProt C5ILC1 74-199). The assay is described as follows: crystal structure.

Data on one molecule can be found in publication doi:10.1101/329482 (bioRxiv, 2018).

B1: first CUB domain of neuropilin-2 (NRP2), binding site fragment (domain or fragment)
chain: PCGGRLNSKDAGYITSPGYPQDYPSHQNCEWIVYAPEPNQKIVLNFNPHFEIEKHDCKYDFIEIRDGDSESADLLGKHCGNIAPPTIISSGSMLYIKFTSDYARQGAGFSLRYEIFKTGS
As for B1, the binding result is given as “binds”.
